Results from patent publication US20260055150A1 (REGENTS OF THE UNIVERSITY OF MICHIGAN, published 2026).
Where no end group is shown, it is not given here.

Assays:
[1] = target: T1, epidermal growth factor receptor (EGFR) on patient-derived organoid cells (human, UniProt P00533 25-1210); test: in vivo wide-field fluorescence endoscopy of PDO implanted in mouse colon, peptide given intravenously
T1 construct: whole, on cells
Protocol: Cultures were harvested from Matrigel in cold DPBS, triturated 30× with a 1 mL pipette tip, and centrifuged at 300 g for 3 min at 4° C. […] The colonoid fragments were further dissociated by 20× pipetting with a 1 mL pipette tip. […] Slow centrifugation at 100 g was performed to reduce the single cell content. The cell aggregates were resuspended in cold DPBS supplemented with 5% Matrigel and 10 µM Y27632. 1.8×10⁶ cell aggregates in 200 μL were transplanted per mouse as described previously. The implants were monitored over time using a rigid wide-field endoscope and a flexible fiber-coupled endomicroscope to localize the PDO and visualize EGFR expression with sub-cellular resolution.
Organoids grown in vitro (FIG. 17A) were implanted on day 7 post-DSS treatment. For implantation, in vitro grown PDOs were disrupted into smaller aggregates in 200 μL volume and were implanted intrarectally in anesthetized mice. The rectum was closed immediately using tissue glue. After several weeks to establish viability, the implanted PDOs were imaged using a rigid wide-field endoscope. The fluorescently-labeled peptide QRH*-Cy5 was administered intravenously at a dose of 300 μM in 200 μL of PBS.

[2] = target: T2, claudin-1 on colonic patient-derived organoid cells (human, UniProt O95832 1-211); test: ex vivo immunofluorescence staining of resected tissue
T2 construct: whole, on cells; also called CLN1
T2 sequence (looked up): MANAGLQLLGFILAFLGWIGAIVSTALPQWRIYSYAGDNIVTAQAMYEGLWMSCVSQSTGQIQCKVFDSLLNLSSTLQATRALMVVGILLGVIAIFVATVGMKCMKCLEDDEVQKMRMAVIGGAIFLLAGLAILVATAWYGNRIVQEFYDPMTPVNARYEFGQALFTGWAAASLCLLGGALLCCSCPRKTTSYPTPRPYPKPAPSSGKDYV
Description: After completion of in vivo imaging, the results were validated using IF.

B1: QRH*-Cy5 (QRHKPRE labeled with Cy5) (peptide)
peptide: QRHKPRE
modifications: also: Cy5 label, attachment not given here
notes: also called Cy5QRH*-Cy5
- binding result [1]: binds

B2: RTS*-Cy5.5 (Cy5.5-labeled peptide RTSPSSR) (peptide)
peptide: RTSPSSR
modifications: also: Cy5.5 label, attachment not given here
notes: also called peptide specific for claudin-1
- binding result [2]: binds
